Laboratory results from the RNAGym collection of RNA variant scans (doi:10.1073/pnas.2313332121).

B1: TPR t1 (parent)
chain: GACCAAUCUGCCCUCAGAGCUCGAGAACAUCUUCGGAUGCAGAGGAGGCAGGCUUCGGUGGCGCGAUAGCGCCAACGUCCUCAACCUCCAAUGCAUCCCACCACAUGAUGAUGCCUGAAGAGCCUUGGUUUUUUG

Variants of: B1
Assay: polymerase ribozyme fitness, log enrichment relative to wild type (log ratio); higher = more active; in vitro selection for triplet polymerase activity
Outline: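 Mutant libraries were PCR-built and transcribed for each subunit of a heterodimeric triplet polymerase ribozyme and selected for one round in triplicate at −7 °C, frozen, before gel excision of extended constructs and streptavidin-bead capture. Input and output libraries were Illumina-sequenced, keeping genotypes with ≥10 input reads and ≥1 read per output. Fitness is a logarithmic ratio of genotype to wild-type enrichment, in base 2, using inverse-variance-weighted replicate averages.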

Compared with GACCAAUCUGCCCUCAGAGCUCGAGAACACCUUCGGAUGCAGAGGAGGCAGGCUUCGGUGGCGCGAUAGCGCCAACGUCCUCAACCGCCAAUGCAUCCCACCACAUGAUGAUGCCUGAAGAGCCUUGGUUUUUUG [U30C U87G], GACCAAUCUGCCCUCAGAGCUCGAGAACAACUUCGGAUGCAGAGGAGGCAGGCUUCGGUGGCGCGAUAGCGCCAACGUCCUCAACCUCCAAUGCAUCCCACCAAAUGAUGAUGCCUGAAGAGCCUUGGUUUUUUG [U30A C104A] is lower in “polymerase ribozyme fitness (log ratio)” value: -2.72 for the first, -6.42 for the second.

Compared with GACCAAUCUGCCCUCAGAGCUCGAGAACUUCUUCGGAUGCAGAGGAGGCAGGCUUCGGUGGCGCGAUAGCGCCAACGUCCCCAACCUCCAAUGCAUCCCACCACAUGAUGAUGCCUGAAGAGCAUUGGUUUUUUG [A29U U81C C124A], GACCAAUCUGCCCUCAGAGCUCGAGAACUUCUUCGGAUGCAGAGGAGGCAGGCUUCGGUGCCGCGAUAGCGCCAACGUCCUCAACCUCCAAUGCAUCCCACCACAUGAUUAUGCCUGAAGAGCCUUGGUUUUUUG [A29U G61C G110U] is lower in “polymerase ribozyme fitness (log ratio)” value: -0.606 for the first, -3.06 for the second.

Going from GACCAAUCUGCCCUCAGAGCUCGAGAACUUCUUCGGAUGCAGAGGAGGCAGUCUUCGGUGGCGCGAUAGCGCCAACGUCCUCAACCUCCAAUGCAUCCCACCACACGAUGAUGCCUAUAGAGCGUUGGUUUUUUG [A29U G52U U106C G117A A118U C124G] to GACCAAUCUGCCCUCAGAGCUCGAGAACACCUUCGGAUGCAGAGGGGGCAGGCUUCGGUGGCGCGAUAGCGCCGACGUCCUCAACCUCCAAUGCAUCCCACCACAUGAUGAUACCUGAAGAGCCUUGGUUUUUUG [U30C A46G A74G G113A], the “polymerase ribozyme fitness (log ratio)” value falls from -1.91 to -2.75.

Going from GACCAAUCUGCCCUCAGAGCUCGAGAACAGCUUCGGAUGCAGAGGAGGCAGGCUUCGGUGGCGUGAUAGCGCCAACGUCCUCAACCUCCAAUGCAUCCCACCACAUGAUGAUGCCUGAAGGGCCUUGGUUUUUUG [U30G C64U A121G] to GACCAAUCUGCCCUCAGAGCUCGAGAACAUAUUCGGAUGCAGAGGAGGCAGGCUUCGGUGGCGCGAUAGCGCUAACGUCCUCAACCUCCAAUGCAUCCCACCACAUGAUGAUGCCUGAAGAGCCUUGGUUUUUUG [C31A C73U], the “polymerase ribozyme fitness (log ratio)” value falls from -4 to -5.76.

Going from GACCAAUCUGCCCUCAGAGCUCGAGAACUUCUUCGGAUGCAGAGGAGGCAGGCUUCGGUGGCGCGAUAUCGCCAACGUCCUCAACCUCCAAUGCAUCCCACCACAUGAUGAUGCCUGAAGAGCCUUGGUUUUUUG [A29U G69U] to GACCAAUCUGCCCUCAGAGCUCGAGAACACCUUCGGAUGCAGAGGAGGCAGGCUUCGGUGGCGCGAUAGCUCCAACGUCCUCAACCCCCAAUGCAUCCCACCACAUGAUGAUGCCUGAAGAGCCUUGGUUUUUUG [U30C G71U U87C], the “polymerase ribozyme fitness (log ratio)” value falls from -0.63 to -4.19.

GACCAAUCUGCCCUCAGAGCUCGAGAACAUAUUCGGAUGCAGAGGAGGCAGGCUUCGGUGGCGCGAUAGCGGCAACGUCCUCAACCUCCAAUGCAUCCCACCACAUGAUGAUGCCUGAAGAGCCUUGGUUUUUUG [C31A C72G] and GACCAAUCUGCCCUCAGAGCUCGAGAACAACUUCGGAUGCAGAGGAGGCAGGCUUCGGUGACGCGAUAGCGCCAACGUCCUCAACCUUCAAUGCAUCCCACCACAUGAUGAUGCCUGAAGAGCCUUGGUUUUUUG [U30A G61A C88U] are within 0.2 log units of each other in “polymerase ribozyme fitness (log ratio)” value: -5.43 for the first, -5.29 for the second.

Going from GACCAAUCUGCCCUCAGAGCUCGAGAACACCUUCGGAUACAGAGGAGGCAGGCUUCUGUGGCGCGAUAUCGCCAACGUCCUCAACCUCCAAUGCAUCCCACCACAUGAUGAUGCCUGAAGAGCCUUGGUGUUUUG [U30C G39A G57U G69U U130G] to GACCAAUCUGCCCUCAGAGCUCGAGAACACCUUCGGAUGCAGAGGAGGAAGGCUUCGGUGGAGCGAUAGCGCCAACGUCCUCAACCUCCAAUGCAUCCCACCACAUGAUGAUGCAUGAAGAGCCUUGGUUUUUUG [U30C C49A C62A C115A], the “polymerase ribozyme fitness (log ratio)” value rises from -5.29 to -4.4.

First: GACCAAUCUGCCCUCAGAGCUCGAGAACAACUUCGGAUGCAGAGGAGGCAGGCUUCGGUGGCGCGAUAGCGCCAACGUCCUCAACCUCCAAUGCAUCCCACCACAUGAUGAUGCCUGAAGAGCCUUGGGUUUUUG [U30A U129G]
Second: GACCAAUCUGCCCUCAGAGCUCGAGAACUUCUUCGGAUGCAGAGGAGGCAGGCUUCGGUGGCGCGAUAGCGCCAACCUCCUCAACCUCCAAUGCAUCCCACCACAUGAUGAGGCCUGAAGAGCCUUCGUUUUUUG [A29U G77C U112G G127C]
The “polymerase ribozyme fitness (log ratio)” value of the first is higher: -4.77 for the first, -5.41 for the second.

Compared with GACCAAUCUGCCCUCAGAGCUCGAGAACAGCUUCGGAUGCAGUGUAAGAAGGCUUCGGUGGCGCGAUAGCGCAAACGUCCUCAACCUCCAAUGCAUCCCACCACAAGAUGAUGCCUGAGGAGCCUUGGUUUUUUG [U30G A43U G45U G47A C49A C73A U106A A119G], GACCAAUCUGCCCUCAGAGCUCGAGAACAACUUCGGAUGCCGAGGAGGCAGGCUUCGGUGGCGCGAUAGCGCCAACGUCCUCAACCUCCAAUGCAUCCCACCACAUGAUGAUACCUGAAGAGCAUUGGUUUUUUG [U30A A41C G113A C124A] is lower in “polymerase ribozyme fitness (log ratio)” value: -3.78 for the first, -5.47 for the second.

Compared with GACCAAUCUGCCCUCAGAGCUCGAGAACAUAUUCGGAUGCAGAGGAGGCAGGCUUCGGUGGCGCGAUAGCGCCAACGUCCUCAACCUCCAAUGCAUCCCACCACAUGAUGCUGCCUGAAGAGCCUUGGUUUUUUG [C31A A111C], GACCAAUCUGCCCUCAGAGCUCGAGAACACCUUCGGAUGCAGAGGAGGCAGGCUUCGGUGGCGCGAUAGCGCCAACGACCUCAACCUCCAAUGCAACCCACCACAUGAUGAUGCCUGAAGAGCCUUGGUUUUUUG [U30C U78A U96A] is lower in “polymerase ribozyme fitness (log ratio)” value: -3.67 for the first, -5.15 for the second.

For GACCAAUCUGCCCUCAGAGCUCGAGAACUUCUUCGGAUGCAGAGGAGGCAGGCUUCGGUGGCGCGAUAGCGCCAACGUCCUCAACCUCCAAUGCAUCCCACCACAUGAUGAUGCCUGAAUAGCCUUGGUUUUUUG [A29U G120U], the “polymerase ribozyme fitness (log ratio)” value was -0.652.
